Experimental data from PMC11087270, “CryoEM structures reveal how the bacterial flagellum rotates and switches direction” (Nature Microbiology, 2024).
Values joined by “and” are separate entries in the source; they are usually repeats but may differ in a detail not shown here. Equal entries are not always repeated.

B2: FliF (S. enterica serovar typhimurium), subunit of the MS-ring whose C-terminus (FliFC) lies in the C-ring (natural protein)
chain: MSATASTATQPKPLEWLNRLRANPRIPLIVAGSAAVAIVVAMVLWAKTPDYRTLFSNLSDQDGGAIVAQLTQMNIPYRFANGSGAIEVPADKVHELRLRLAQQGLPKGGAVGFELLDQEKFGISQFSEQVNYQRALEGELARTIETLGPVKSARVHLAMPKPSLFVREQKSPSASVTVTLEPGRALDEGQISAVVHLVSSAVAGLPPGNVTLVDQSGHLLTQSNTSGRDLNDAQLKFANDVESRIQRRIEAILSPIVGNGNVHAQVTAQLDFANKEQTEEHYSPNGDASKATLRSRQLNISEQVGAGYPGGVPGALSNQPAPPNEAPIATPPTNQQNAQNTPQTSTSTNSNSAGPRSTQRNETSNYEVDRTIRHTKMNVGDIERLSVAVVVNYKTLADGKPLPLTADQMKQIEDLTREAMGFSDKRGDTLNVVNSPFSAVDNTGGELPFWQQQSFIDQLLAAGRWLLVLVVAWILWRKAVRPQLTRRVEEAKAAQEQAQVRQETEEAVEVRLSKDEQLQQRRANQRLGAEVMSQRIREMSDNDPRVVALVIRQWMSNDHE
notes: FliF, S. enterica serovar typhimurium, expressed from the fliF gene on plasmid pKLR3; residues 50-428 modelled in the MS-ring and 514-560 (FliFC) in the C-ring; no tag is told; also called MS-ring subunit; source: E. coli BL21-Gold, coexpressed from plasmid pKLR3; MSC-ring particles partially purified by differential membrane extraction
B5: FliM (S. enterica serovar typhimurium), C-ring switch subunit (natural protein, UniProt P26418 1-334, looked up)
chain: MGDSILSQAEIDALLNGDSDTKDEPTPGIASDSDIRPYDPNTQRRVVRERLQALEIINERFARQFRMGLFNLLRRSPDITVGAIRIQPYHEFARNLPVPTNLNLIHLKPLRGTGLVVFSPSLVFIAVDNLFGGDGRFPTKVEGREFTHTEQRVINRMLKLALEGYSDAWKAINPLEVEYVRSEMQVKFTNITTSPNDIVVNTPFHVEIGNLTGEFNICLPFSMIEPLRELLVNPPLENSRHEDQNWRDNLVRQVQHSELELVANFADIPLRLSQILKLKPGDVLPIEKPDRIIAHVDGVPVLTSQYGTVNGQYALRVEHLINPILNSLNEEQPK
notes: FliM, S. enterica serovar typhimurium, expressed from the fliM gene on plasmid pKLR3; FliML1 31-50, FliMmid 51-230, FliML2 231-256 and FliMC 257-330 described in the C-ring; no tag is told; also called FliML1; FliMmid; source: E. coli BL21-Gold, coexpressed from plasmid pKLR3; MSC-ring particles partially purified by differential membrane extraction

Experiments:
[1] = biological target: the molecule itself; assay: cryo-EM structure; wild-type MSC-ring particles (CCW pose); MS-ring or C-ring removed by particle subtraction; C-ring 34-mer at 4.0 Å (33-, 35-, 36-mer classes too), MS-ring 33-mer at 3.4 Å
[2] = biological target: B2; assay: as above; details: both partners purified
[3] = biological target: the molecule itself; assay: cryo-EM structure; MSC-ring particles with FliG ΔPAA (CW pose); C34 symmetry applied, symmetry expansion and local refinement of three staves; 4.6 Å
[4] = biological target: B2; assay: as above; details: both partners purified
[5] = biological target: B5; assay: cryo-EM structure; wild-type MSC-ring particles (CCW pose); MS-ring or C-ring removed by particle subtraction; C-ring 34-mer at 4.0 Å (33-, 35-, 36-mer classes too), MS-ring 33-mer at 3.4 Å; details: both partners purified

B1: FliG (S. enterica serovar typhimurium), wild type, C-ring switch subunit (natural protein, UniProt P0A1J9 1-331, looked up)
chain: MSNLSGTDKSVILLMTIGEDRAAEVFKHLSTREVQALSTAMANVRQISNKQLTDVLSEFEQEAEQFAALNINANEYLRSVLVKALGEERASSLLEDILETRDTTSGIETLNFMEPQSAADLIRDEHPQIIATILVHLKRSQAADILALFDERLRHDVMLRIATFGGVQPAALAELTEVLNGLLDGQNLKRSKMGGVRTAAEIINLMKTQQEEAVITAVREFDGELAQKIIDEMFLFENLVDVDDRSIQRLLQEVDSESLLIALKGAEPPLREKFLRNMSQRAADILRDDLANRGPVRLSQVENEQKAILLIVRRLAETGEMVIGSGEDTYV
notes: FliG, S. enterica serovar typhimurium, expressed from the fliG gene on plasmid pKLR3; residues 1-331 modelled in the C-ring; no tag is told; also called FliGD1; FliGD2; source: E. coli BL21-Gold, coexpressed from plasmid pKLR3; MSC-ring particles partially purified by differential membrane extraction
B1 was tested, and the “stoichiometry N” value [1] was 34 and 33 and 35 and 36 and the binding result [2] was “binds”.

In the case of B2, the “stoichiometry N” value [1] is reported as 33.

B3: FliG ΔPAA (S. enterica serovar typhimurium), extreme CW-biased mutant (natural protein)
chain: MSNLSGTDKSVILLMTIGEDRAAEVFKHLSTREVQALSTAMANVRQISNKQLTDVLSEFEQEAEQFAALNINANEYLRSVLVKALGEERASSLLEDILETRDTTSGIETLNFMEPQSAADLIRDEHPQIIATILVHLKRSQAADILALFDERLRHDVMLRIATFGGVQLAELTEVLNGLLDGQNLKRSKMGGVRTAAEIINLMKTQQEEAVITAVREFDGELAQKIIDEMFLFENLVDVDDRSIQRLLQEVDSESLLIALKGAEPPLREKFLRNMSQRAADILRDDLANRGPVRLSQVENEQKAILLIVRRLAETGEMVIGSGEDTYV
notes: FliG, S. enterica serovar typhimurium, with the Pro-Ala-Ala (PAA) motif FliG 169-171 deleted; also called switch_(ΔPAA); CW-locked; source: switch particles containing the FliG ΔPAA mutation; expression and purification as told for the FliFGMN subunits (E. coli BL21-Gold, differential membrane extraction)
B3: binds [3]; binds [4].

B4: FliN (S. enterica serovar typhimurium), C-ring switch subunit (natural protein, UniProt P26419 1-137, looked up)
chain: MSDMNNPSDENTGALDDLWADALNEQKATTTKSAADAVFQQLGGGDVSGAMQDIDLIMDIPVKLTVELGRTRMTIKELLRLTQGSVVALDGLAGEPLDILINGYLIAQGEVVVVADKYGVRITDIITPSERMRRLSR
notes: FliN, S. enterica serovar typhimurium, expressed from the fliN gene on plasmid pKLR3; residues 45/59/63-137 of the three non-equivalent copies modelled in the C-ring; no tag is told; also called FliNC; FliN1; source: E. coli BL21-Gold, coexpressed from plasmid pKLR3; MSC-ring particles partially purified by differential membrane extraction
B4 was tested, and the binding result [3] was “binds” and the “stoichiometry N” value [5] was 3 FliN per FliM.

For B5, the “stoichiometry N” value [1] was 34.
